Assay results taken from article PMC8699845.

How the values were obtained:
[1] = target: WIF domain of human WIF1 protein (human) (UniProt Q9Y5W5); assay: SPR; BIACORE X; WIF1 or WIF domain amine-coupled to CM5 chip, rhShh injected at 20 µL/min; 20 mM Tris, 150 mM NaCl, 5 mM EDTA, 0.005% Tween 20, 100 µM CHAPS, pH 7.4; 1:1 Langmuir fit
[2] = target: Recombinant human Wnt Inhibitory Factor 1 (human) (UniProt Q9Y5W5); assay: as above
[3] = target: dually lipidated recombinant human sonic hedgehog (human)

UniProt Q9Y5W5, sequence (Q9Y5W5 29-379): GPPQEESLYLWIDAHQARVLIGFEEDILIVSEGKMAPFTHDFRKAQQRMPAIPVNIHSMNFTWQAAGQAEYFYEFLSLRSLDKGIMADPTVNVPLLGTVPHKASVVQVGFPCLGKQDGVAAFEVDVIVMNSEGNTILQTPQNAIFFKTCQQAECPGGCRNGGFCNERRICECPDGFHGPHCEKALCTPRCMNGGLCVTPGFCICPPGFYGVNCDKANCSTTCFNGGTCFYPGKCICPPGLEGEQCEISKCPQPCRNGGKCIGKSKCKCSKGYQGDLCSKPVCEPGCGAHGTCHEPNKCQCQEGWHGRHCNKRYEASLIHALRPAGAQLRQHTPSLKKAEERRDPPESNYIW

Molecule | Kd [1] [nM] | koff [1] [s⁻¹] | kon [1] [M⁻¹ s⁻¹] | Kd [2] [nM] | koff [2] [s⁻¹] | kon [2] [M⁻¹ s⁻¹] | Gli luciferase reporter in Gli Reporter-NIH3T3 cells; inhibition of the signaling activity of 0.2 nM rhShh preincubated with 0-50 nM WIF domain; EC50 [3] [nM]
dually lipidated recombinant human sonic hedgehog (ligand) | 1.18 | 5.03e-05 | 42600 | 2.06 | 0.000141 | 68500 | –
WIF domain of human WIF1 protein (domain or fragment) LWIDAHQARVLIGFEEDILIVSEGKMAPFTHDFRKAQQRMPAIPVNIHSMNFTWQAAGQAEYFYEFLSLRSLDKGIMADPTVNVPLLGTVPHKASVVQVGFPCLGKQDGVAAFEVDVIVMNSEGNTILQTPQNAIFFKTC | – | – | – | – | – | – | 2.75
